Reference: patent US20190106460A1 (published 2019)
Read-outs that look alike come from different tables or passages of the source. Starred links: 1 amine or outer side, 2 acyl side, 3 side chain; linkers in the order of their positions; H or OH if unused. Non-standard residues stand in square brackets, D forms with d. *: point of attachment. Phe(4-NO2) = N[C@@H](Cc1ccc([N+](=O)[O-])cc1)C(=O)O; Benzenesulfonyl(4-OMe) = COc1ccc(S(=O)(=O)*)cc1; 2Naphthylsulfonyl = O=S(=O)(c1ccc2ccccc2c1)*; Y(Me) = COc1ccc(C[C@H](N[*:1])C(=O)[*:2])cc1; 3,4‑(MeO)2‑PhSO2 = COc1ccc(S(=O)(=O)*)cc1OC; 4‑(BuO)‑PhSO2 = CCCCOc1ccc(S(=O)(=O)*)cc1; E(OMe) = COC(=O)CC[C@H](N[*:1])C(=O)[*:2]; Phe(3-F) = N[C@@H](Cc1cccc(F)c1)C(=O)O; 1Nal = N[C@@H](Cc1cccc2ccccc12)C(=O)O; Glutaryl = O=C(CCCC(=O)[*:2])[*:1]; Suc = O=C(CCC(=O)[*:2])[*:1]; Tos = Cc1ccc(S(=O)(=O)*)cc1; Ethoxycarbonyl = CCOC(=O)*; Propionyl = CCC(=O)*; Bz = O=C(c1ccccc1)*; Moc = COC(=O)*

B1: Suc-EGFFE-NH2 (peptide)
peptide: Suc-EGFFE-NH2
SMILES: NC(=O)[C@H](CCC(=O)O)NC(=O)[C@H](Cc1ccccc1)NC(=O)[C@H](Cc1ccccc1)NC(=O)CNC(=O)[C@H](CCC(=O)O)NC(=O)CCC(=O)O
notes: also called UBP002
B2: EtO(CO)-dEGF(3F)WE-NH2 (peptide)
peptide: Ethoxycarbonyl-[dD]EG[Phe(3-F)]WE-NH2
SMILES: CCOC(=O)N[C@H](CC(=O)O)C(=O)N[C@@H](CCC(=O)O)C(=O)NCC(=O)N[C@@H](Cc1cccc(F)c1)C(=O)N[C@@H](Cc1c[nH]c2ccccc12)C(=O)N[C@@H](CCC(=O)O)C(N)=O
notes: also called UBP023
B3: Suc-EGF-Y(Me)-E(OMe)-NH2 (peptide)
peptide: Suc-EGF[Y(Me)][E(OMe)]-NH2
SMILES: COC(=O)CC[C@H](NC(=O)[C@H](Cc1ccc(OC)cc1)NC(=O)[C@H](Cc1ccccc1)NC(=O)CNC(=O)[C@H](CCC(=O)O)NC(=O)CCC(=O)O)C(N)=O
B4: 4-(MeO)-PhSO2-DEGF(3F)WE-NH2 (peptide)
peptide: {Benzenesulfonyl(4-OMe)}-DEG[Phe(3-F)]WE-NH2
SMILES: COc1ccc(S(=O)(=O)N[C@@H](CC(=O)O)C(=O)N[C@@H](CCC(=O)O)C(=O)NCC(=O)N[C@@H](Cc2cccc(F)c2)C(=O)N[C@@H](Cc2c[nH]c3ccccc23)C(=O)N[C@@H](CCC(=O)O)C(N)=O)cc1
notes: also called UBP026
B5: 2-NaphthylSO2-dEGF(3F)WE-NH2 (peptide)
peptide: 2Naphthylsulfonyl-[dD]EG[Phe(3-F)]WE-NH2
SMILES: NC(=O)[C@H](CCC(=O)O)NC(=O)[C@H](Cc1c[nH]c2ccccc12)NC(=O)[C@H](Cc1cccc(F)c1)NC(=O)CNC(=O)[C@H](CCC(=O)O)NC(=O)[C@@H](CC(=O)O)NS(=O)(=O)c1ccc2ccccc2c1
notes: also called UBP031
B6: Ts-dEGF(3F)WD-NH2 (peptide)
peptide: Tos-[dD]EG[Phe(3-F)]WD-NH2
SMILES: Cc1ccc(S(=O)(=O)N[C@H](CC(=O)O)C(=O)N[C@@H](CCC(=O)O)C(=O)NCC(=O)N[C@@H](Cc2cccc(F)c2)C(=O)N[C@@H](Cc2c[nH]c3ccccc23)C(=O)N[C@@H](CC(=O)O)C(N)=O)cc1
notes: also called UBP027
B7: Ts-dDGF(3F)WE-NH2 (peptide)
peptide: Tos-[dD]DG[Phe(3-F)]WE-NH2
SMILES: Cc1ccc(S(=O)(=O)N[C@H](CC(=O)O)C(=O)N[C@@H](CC(=O)O)C(=O)NCC(=O)N[C@@H](Cc2cccc(F)c2)C(=O)N[C@@H](Cc2c[nH]c3ccccc23)C(=O)N[C@@H](CCC(=O)O)C(N)=O)cc1
notes: also called UBP025
B8: Ts-dDGF(3F)WD-NH2 (peptide)
peptide: Tos-[dD]DG[Phe(3-F)]WD-NH2
SMILES: Cc1ccc(S(=O)(=O)N[C@H](CC(=O)O)C(=O)N[C@@H](CC(=O)O)C(=O)NCC(=O)N[C@@H](Cc2cccc(F)c2)C(=O)N[C@@H](Cc2c[nH]c3ccccc23)C(=O)N[C@@H](CC(=O)O)C(N)=O)cc1
notes: also called UBP028
B9: Ts-dEGF(3F)WE-NH2 (peptide)
peptide: Tos-[dD]EG[Phe(3-F)]WE-NH2
SMILES: Cc1ccc(S(=O)(=O)N[C@H](CC(=O)O)C(=O)N[C@@H](CCC(=O)O)C(=O)NCC(=O)N[C@@H](Cc2cccc(F)c2)C(=O)N[C@@H](Cc2c[nH]c3ccccc23)C(=O)N[C@@H](CCC(=O)O)C(N)=O)cc1
notes: also called UBP021
B10: Ac-dEGF(3F)1NalE-NH2 (peptide)
peptide: Ac-[dD]EG[Phe(3-F)][1Nal]E-NH2
SMILES: CC(=O)N[C@H](CC(=O)O)C(=O)N[C@@H](CCC(=O)O)C(=O)NCC(=O)N[C@@H](Cc1cccc(F)c1)C(=O)N[C@@H](Cc1cccc2ccccc12)C(=O)N[C@@H](CCC(=O)O)C(N)=O
notes: also called UBP016
B11: MeO(CO)-dEGF(3F)WE-NH2 (peptide)
peptide: Moc-[dD]EG[Phe(3-F)]WE-NH2
SMILES: COC(=O)N[C@H](CC(=O)O)C(=O)N[C@@H](CCC(=O)O)C(=O)NCC(=O)N[C@@H](Cc1cccc(F)c1)C(=O)N[C@@H](Cc1c[nH]c2ccccc12)C(=O)N[C@@H](CCC(=O)O)C(N)=O
notes: also called UBP020
B12: 3,4-(MeO)2-PhSO2-dEGF(3F)WE-NH2 (peptide)
peptide: {3,4‑(MeO)2‑PhSO2}-[dD]EG[Phe(3-F)]WE-NH2
SMILES: COc1ccc(S(=O)(=O)N[C@H](CC(=O)O)C(=O)N[C@@H](CCC(=O)O)C(=O)NCC(=O)N[C@@H](Cc2cccc(F)c2)C(=O)N[C@@H](Cc2c[nH]c3ccccc23)C(=O)N[C@@H](CCC(=O)O)C(N)=O)cc1OC
notes: also called UBP029

Assays:
Skp2 = Skp2 (UniProt Q13309 1-424, limits assumed); assay: cell-based or functional assay
Skp2, sequence (Q13309 whole entry): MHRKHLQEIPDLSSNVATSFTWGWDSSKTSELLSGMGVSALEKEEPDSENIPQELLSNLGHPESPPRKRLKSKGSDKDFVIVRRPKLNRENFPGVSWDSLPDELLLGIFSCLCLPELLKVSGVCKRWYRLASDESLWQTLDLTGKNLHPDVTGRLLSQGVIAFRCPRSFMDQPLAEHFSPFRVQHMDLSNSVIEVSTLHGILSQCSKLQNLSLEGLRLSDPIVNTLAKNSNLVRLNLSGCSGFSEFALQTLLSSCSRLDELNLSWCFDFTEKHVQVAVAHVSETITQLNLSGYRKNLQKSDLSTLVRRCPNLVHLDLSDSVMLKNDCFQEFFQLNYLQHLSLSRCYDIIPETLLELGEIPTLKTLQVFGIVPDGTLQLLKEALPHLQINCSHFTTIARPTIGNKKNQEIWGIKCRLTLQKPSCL

Fbw7 = Fbw7 (UniProt Q969H0 263-707, limits assumed); assay: cell-based or functional assay
Fbw7, sequence (Q969H0 263-707 limits assumed): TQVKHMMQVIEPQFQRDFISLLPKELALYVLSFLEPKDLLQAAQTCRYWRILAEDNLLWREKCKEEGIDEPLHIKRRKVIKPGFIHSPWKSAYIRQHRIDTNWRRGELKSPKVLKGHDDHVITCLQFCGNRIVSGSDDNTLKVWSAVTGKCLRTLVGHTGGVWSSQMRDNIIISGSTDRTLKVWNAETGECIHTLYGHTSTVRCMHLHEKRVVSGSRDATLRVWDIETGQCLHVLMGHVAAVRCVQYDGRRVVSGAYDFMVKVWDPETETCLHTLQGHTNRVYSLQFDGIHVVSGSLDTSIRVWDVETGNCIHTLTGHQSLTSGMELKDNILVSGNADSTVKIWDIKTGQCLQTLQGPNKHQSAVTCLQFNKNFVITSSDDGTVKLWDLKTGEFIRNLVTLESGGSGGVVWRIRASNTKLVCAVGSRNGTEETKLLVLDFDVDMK

[1] = target: T1, βTrCP (tag cleaved and complexed with Skp1) (UniProt Q9Y297 175-605; P63208 1-163); assay: FP competition vs fluorescein-IκB peptide
T1 construct: Protein of the FP assay (0.035 µM); also called Beta Transducin repeat-containing protein; βTrCP/Skp1
T1 sequence (Q9Y297 175-605, chain 1 of 2): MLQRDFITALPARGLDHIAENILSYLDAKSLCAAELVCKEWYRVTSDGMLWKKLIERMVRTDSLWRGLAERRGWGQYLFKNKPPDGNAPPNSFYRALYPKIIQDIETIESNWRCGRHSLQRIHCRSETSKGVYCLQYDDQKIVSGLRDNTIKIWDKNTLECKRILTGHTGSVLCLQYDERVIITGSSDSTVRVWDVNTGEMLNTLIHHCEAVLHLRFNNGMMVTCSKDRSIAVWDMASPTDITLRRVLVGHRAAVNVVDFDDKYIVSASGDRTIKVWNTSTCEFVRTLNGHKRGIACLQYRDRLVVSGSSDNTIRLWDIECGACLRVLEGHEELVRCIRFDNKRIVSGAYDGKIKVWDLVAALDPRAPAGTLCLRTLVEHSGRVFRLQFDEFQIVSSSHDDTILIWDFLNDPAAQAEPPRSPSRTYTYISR
T1 sequence (P63208 whole entry, chain 2 of 2): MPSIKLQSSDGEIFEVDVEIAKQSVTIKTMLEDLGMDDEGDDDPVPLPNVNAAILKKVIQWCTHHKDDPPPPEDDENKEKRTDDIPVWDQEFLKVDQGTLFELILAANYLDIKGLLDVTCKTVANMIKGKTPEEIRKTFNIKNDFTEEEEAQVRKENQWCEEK

[2] = target: T2, HisβTrCP/Skp1 and HisβTrCP/GSTSkp1 (immobilised on NTA Biacore chip) (UniProt Q9Y297 175-605; P63208 1-163); assay: SPR, Biacore T200, βTrCP/Skp1 immobilised
T2 construct: SPR: KD values from both surfaces (with or without the GST moiety) were averaged to give the apparent KD; also called βTrCP surfaces
T2 sequence (Q9Y297 175-605, chain 1 of 2): as the sequence (Q9Y297 175-605, chain 1 of 2) above
T2 sequence (P63208 whole entry, chain 2 of 2): as the sequence (P63208 whole entry, chain 2 of 2) above
Source text: As βTrCP was His tagged, an NTA sensor chip was used. This sensor chip has a dextran surface matrix with immobilized nitrilotriacetic acid (NTA) which provides a means of capturing polyHis-tagged proteins through Nickel chelation. It was hoped that addition of Ni⁺ would orient the protein in a specific (and hopefully active) manner as it is covalently immobilised via amine coupling. Addition of EDC:NHS (N-ethyl-N′-(3-[…])-carbodiimide:N-hydroxysuccinimide) converts carboxyl groups on the dextran sensor chip surface to succinamide esters which readily form covalent bonds with primary amines. Each chip contains four flow cells (each a separate surface) which means that compounds/peptides can be passed over different forms of βTrCP and a reference surface simultaneously. If binding to βTrCP is occurring, responses should be the same (accounting for differences in density of surface etc) on each surface.
Small molecule/peptide samples to be assayed for binding to βTrCP surfaces, were provided as 10 mM stocks in 100% DMSO. All samples were tested in running buffer composed of 10 mM HEPES pH 7.4, 150 mM NaCl, 50 μM EDTA, 0.005% p20, and 1% DMSO. Serial dilutions were made using running buffer. Samples were tested over varying concentrations up to a maximum of 100 μM. Two methods of measuring the SPR response were employed: single cycle kinetics which measures the response across different concentrations of sample within a single cycle (no regeneration of surface) and a method that measures the response at a given concentration in each cycle and includes a regeneration wash after each sample injection. The regeneration solution used was the same as running buffer, but included 500 mM NaCl. Data was fitted using Biacore T200 evaluation software. KD values calculated from binding curves from both surfaces (with or without the GST moiety) were averaged to produce apparent KD's for each sample tested.

[3] = target: T1, βTrCP (tag cleaved and complexed with …); assay: FP competition vs fluorescein-IκB peptide; remark: listed apart in the source
[4] = target: T1, βTrCP (tag cleaved and complexed with …); assay: FP competition vs fluorescein-IκB peptide; remark: listed apart in the source

Binder	% Inhibition Skp2 @ 10 µM (Skp2)	% Inhibition Skp2 @ (100 µM) (Skp2)	% Inhibition Fbw7 @ 10 µM (Fbw7)	% Inhibition Fbw7 @ (100 µM) (Fbw7)	IC50 [1]	Kd [2]	IC50 [3]	IC50 [4]
B1	14%	0%	0%	0%	3180 nM	29500 nM	–	–
Propionyl-[dD]EG[Phe(3-F)]WE-NH2 (also called UBP019) [Et(CO)-dEGF(3F)WE-NH2]	1%	10%	0%	10%	145 nM	150 nM	145 nM	–
B2	4%	4%	0%	12%	45 nM	34 nM	45 nM	–
Glutaryl-EGFFE-NH2 [Ga-EGFFE-NH2]	–	–	–	–	–	–	–	65000 nM
B3	–	–	–	–	–	–	–	71000 nM
Suc-EG[1Nal][Phe(4-NO2)]E-NH2 [Suc-EG-1Nal-F(4NO2)-E-NH2]	–	–	–	–	–	–	–	68000 nM
Ac-[dD]EG[Phe(3-F)]WE-NH2 (also called UBP017) [Ac-dEGF(3F)WE-NH2]	10%	27%	3%	0%	102 nM	250 nM	102 nM	–
B4	15%	3%	0%	8%	27 nM	495 nM	27 nM	–
B5	0%	17%	10%	11%	44 nM	262 nM	44 nM	–
B6	4%	6%	3%	8%	34 nM	680 nM	34 nM	–
B7	0%	22%	1%	8%	25 nM	292 nM	25 nM	–
B8	0%	14%	4%	10%	81 nM	637 nM	81 nM	–
B9	19%	25%	9%	0%	29 nM	190 nM	29 nM	–
Bz-[dD]EG[Phe(3-F)]WE-NH2 (also called UBP018) [Bz-dEGF(3F)WE-NH2]	0%	0%	0%	5%	173 nM	424 nM	173 nM	–
B10	0%	7%	3%	8%	112 nM	590 nM	112 nM	–
{4‑(BuO)‑PhSO2}-[dD]EG[Phe(3-F)]WE-NH2 (also called UBP030) [4-(BuO)-PhSO2-dEGF(3F)WE-NH2]	0%	13%	7%	12%	56 nM	767 nM	56 nM	–
B11	0%	16%	6%	8%	76 nM	53 nM	76 nM	–
B12	19%	19%	2%	0%	42 nM	603 nM	42 nM	–
